Assay results from paper PMC6611172 (ACS chemical biology, 2018).
Ends that are not written are not given here.

What was measured:
[1] = target: GST-tagged GAS41 YEATS (residues 1–148) (human) (UniProt O95619); experiment: ITC
[2] = target: full-length GAS41, Avi-tagged, mono-biotinylated (human) (UniProt O95619); experiment: BLI
[3] = target: GAS41 YEATS domain (residues 13–158), His6-tagged, 15N-labeled (human) (UniProt O95619); experiment: NMR titration
[4] = target: GST-tagged GAS41 YEATS (residues 1–148) (human, UniProt O95619 1-148); experiment: ITC
GST-tagged GAS41 YEATS (residues 1–148), sequence (O95619 1-148): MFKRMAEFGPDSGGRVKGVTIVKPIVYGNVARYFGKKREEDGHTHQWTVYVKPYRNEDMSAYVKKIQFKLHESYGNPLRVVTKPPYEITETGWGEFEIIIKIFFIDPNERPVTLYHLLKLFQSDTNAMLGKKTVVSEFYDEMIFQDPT

[5] = target: full-length GAS41, Avi-tagged, mono-biotinylated (human, UniProt O95619 1-227, biotin (mono-biotinylated on the Avi tag by BirA)); experiment: BLI
full-length GAS41, Avi-tagged, mono-biotinylated, sequence (O95619 whole entry): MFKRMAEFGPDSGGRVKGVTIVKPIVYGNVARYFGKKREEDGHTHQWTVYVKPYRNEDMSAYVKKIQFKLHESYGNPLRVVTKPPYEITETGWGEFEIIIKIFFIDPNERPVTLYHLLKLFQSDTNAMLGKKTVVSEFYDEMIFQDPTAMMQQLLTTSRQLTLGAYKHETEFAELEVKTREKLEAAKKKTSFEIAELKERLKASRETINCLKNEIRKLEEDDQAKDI

GST-tagged GAS41 YEATS (residues 1–148) (human), sequence (O95619 1-148): as the sequence (O95619 1-148) above
GAS41 YEATS domain (residues 13–158), His6-tagged, 15N-labeled (human), sequence (O95619 13-158): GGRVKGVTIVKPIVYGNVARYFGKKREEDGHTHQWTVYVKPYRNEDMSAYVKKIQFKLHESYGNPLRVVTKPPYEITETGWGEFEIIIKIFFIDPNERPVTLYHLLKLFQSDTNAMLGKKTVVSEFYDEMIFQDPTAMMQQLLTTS
full-length GAS41, Avi-tagged, mono-biotinylated (human), sequence (O95619 whole entry, the tested form may be a part): as the sequence (O95619 whole entry) above

Kd [1] [µM] | stoichiometry N (peptide : YEATS domain) [1] | Kd [2] [µM] | Kd [3] [µM] | Molecule | other results
11.1 | 0.5 | – | – | H3K23crK27cr peptide | –
– | – | 36 | 106 | H3K18ac peptide | –
39 | 1 | 81 | 58 | H3K27ac peptide | –
– | – | – | 720 | H3K14ac peptide | –
– | – | – | > 1000 | H3 peptide with succinylated K27 (H3K27su) | –
– | – | – | 1000 | tripeptide AKacA | –
12.5 | 0.5 | 3.2 | – | H3K18acK27ac peptide | –
23.4 | – | – | 34 | H3K27cr peptide | –
– | – | – | – | ATK(Ac)AARK(Ac)SAP [H3K23acK27ac peptide] | Kd [4]: 13.6 µM; Kd [5]: 5 µM
